Measured values as given in patent US20230250156A1 (QUADRUCEPT BIO, published 2023).
Where two headings read alike, the source gives them in different places.

Tests used:
SARS-CoV-2 RBD protein [1] = biological target: T1, SARS-CoV-2 RBD protein (SARS-CoV-2, UniProt P0DTC2 319-541); assay: competitive ELISA as for the GB Quads, ACE2 Ig coated
T1 construct: domain: RBD

SARS-CoV-2 RBD protein [2] = biological target: T1, SARS-CoV-2 RBD protein
SARS-CoV-2 RBD protein [3] = biological target: T1, SARS-CoV-2 RBD protein; remark: listed apart in the source
SARS-CoV-2 RBD protein [4] = biological target: T1, SARS-CoV-2 RBD protein; remark: listed apart in the source
SARS-CoV-2 RBD protein [5] = biological target: T1, SARS-CoV-2 RBD protein; assay: indirect binding ELISA, CoV-2 RBD coated

B1: QB-FE mIg-TD Quad (VHH)
VHH: QVQLVESGGGSVQAGGSLRLSCAASGTIAHIKYLGWFRQAPGKEREGVAALMTKWGQTYYADSVKGRFTVSLDNAKNTVYLQMNSLKPEDTALYYCAAASYGANFPLKASDYSYWGQGTQVTVSS
notes: as m58
- IC50 (SARS-CoV-2 RBD protein [1]): 80 pM

B2: Q180/Q182 (VHH QB-GB Fab-like Ig, non-Quad format) (VHH)
heavy: not shown
light: QVQLQESGGGLVQAGGSLRLSCAASGRTFSEYAMGWFRQAPGKEREFVATISWSGGSTYYTDSVKGRFTISRDNAKNTVYLQMNSLKPDDTAVYYCAAAGLGTVVSEWDYDYDYWGQGTQVTVSSGGGGSGGGGSKRTVAAPSVFIFPPSDEQLKSGTASVVCLLNNFYPREAKVQWKVDNALQSGNSQESVTEQDSKDSTYSLSSTLTLSKADYEKHKVYACEVTHQGLSSPVTKSFNRGEC
- IC50 (SARS-CoV-2 RBD protein [2]): 77.8 pM

B3: Q181/Q182 (VHH QB-GB Fab-like Ig-TD) (VHH)
heavy: not shown
light: B2 light
- IC50 (SARS-CoV-2 RBD protein [2]): 15.4 pM

B4: Q186/Q182 (VHH QB-GB Fab'-like TD, octavalent GB Quad) (VHH)
heavy: QVQLQESGGGLVQAGGSLRLSCAASGRTFSEYAMGWFRQAPGKEREFVATISWSGGSTYYTDSVKGRFTISRDNAKNTVYLQMNSLKPDDTAVYYCAAAGLGTVVSEWDYDYDYWGQGTQVTVSSGGGGSGGGGSASTKGPSVFPLAPSSKSTSGGTAALGCLVKDYFPEPVTVSWNSGALTSGVHTFPAVLQSSGLYSLSSVVTVPSSSLGTQTYICNVNHKPSNTKVDKKVEPKSCDKTHTCPPCPAPELLGGKKKPLDGEYFTLQIRGRERFEMFRELNEALELKDAQAGKEPG
light: B2 light
- IC50 (SARS-CoV-2 RBD protein [3]): 8.3 pM
- IC50 (SARS-CoV-2 RBD protein [2]): 14.8 pM

B5: Q184/Q182 (VHH QB-GB Fab-like mIg-TD) (VHH)
heavy: QVQLQESGGGLVQAGGSLRLSCAASGRTFSEYAMGWFRQAPGKEREFVATISWSGGSTYYTDSVKGRFTISRDNAKNTVYLQMNSLKPDDTAVYYCAAAGLGTVVSEWDYDYDYWGQGTQVTVSSGGGGSGGGGSASTKGPSVFPLAPSSKSTSGGTAALGCLVKDYFPEPVTVSWNSGALTSGVHTFPAVLQSSGLYSLSSVVTVPSSSLGTQTYICNVNHKPSNTKVDKKVEPKSCDKTHTAPELLGGPSVFLFPPKPKDTLMISRTPEVTCVVVDVSHEDPEVKFNWYVDGVEVHNAKTKPREEQYNSTYRVVSVLTVLHQDWLNGKEYKCKVSNKALPAPIEKTISKAKGQPREPQVYTLPPSRDELTKNQVSLTCLVKGFYPSDIAVEWESNGQPENNYKTTPPVLDSDGSFFLYSKLTVDKSRWQQGNVFSCSVMHEALHNHYTQKSLSLSPGKKKKPLDGEYFTLQIRGRERFEMFRELNEALELKDAQAGKEPG
light: B2 light
- IC50 (SARS-CoV-2 RBD protein [2]): 34.2 pM

B6: Q183/Q182 (VHH QB-GB Fab-like TD) (VHH)
heavy: QVQLQESGGGLVQAGGSLRLSCAASGRTFSEYAMGWFRQAPGKEREFVATISWSGGSTYYTDSVKGRFTISRDNAKNTVYLQMNSLKPDDTAVYYCAAAGLGTVVSEWDYDYDYWGQGTQVTVSSGGGGSGGGGSASTKGPSVFPLAPSSKSTSGGTAALGCLVKDYFPEPVTVSWNSGALTSGVHTFPAVLQSSGLYSLSSVVTVPSSSLGTQTYICNVNHKPSNTKVDKKVEPKSCDKTHTKKKPLDGEYFTLQIRGRERFEMFRELNEALELKDAQAGKEPG
light: B2 light
- IC50 (SARS-CoV-2 RBD protein [2]): 31.2 pM

B7: Q185B (tandem GB VHH-hinge-TD) (VHH)
chain: QVQLQESGGGLVQAGGSLRLSCAASGRTFSEYAMGWFRQAPGKEREFVATISWSGGSTYYTDSVKGRFTISRDNAKNTVYLQMNSLKPDDTAVYYCAAAGLGTVVSEWDYDYDYWGQGTQVTVSSGGSGGSQVQLQESGGGLVQAGGSLRLSCAASGRTFSEYAMGWFRQAPGKEREFVATISWSGGSTYYTDSVKGRFTISRDNAKNTVYLQMNSLKPDDTAVYYCAAAGLGTVVSEWDYDYDYWGQGTQVTVSSGGGGSGGGGSEPKSCDKTHTCPPCPAPELLGGKKKPLDGEYFTLQIRGRERFEMFRELNEALELKDAQAGKEPG
- IC50 (SARS-CoV-2 RBD protein [4]): 0.03 pM

B8: QB-FE VHH (monovalent) (VHH)
VHH: QVQLVESGGGSVQAGGSLRLSCAASGTIAHIKYLGWFRQAPGKEREGVAALMTKWGQTYYADSVKGRFTVSLDNAKNTVYLQMNSLKPEDTALYYCAAASYGANFPLKASDYSYWGQGTQVTVS
- binding result (SARS-CoV-2 RBD protein [5]): no binding (tested: 100 nM)

B9: Q177 (VHH QB-GB-TD) (VHH)
VHH: QVQLQESGGGLVQAGGSLRLSCAASGRTFSEYAMGWFRQAPGKEREFVATISWSGGSTYYTDSVKGRFTISRDNAKNTVYLQMNSLKPDDTAVYYCAAAGLGTVVSEWDYDYDYWGQGTQVTVSS
- IC50 (SARS-CoV-2 RBD protein [2]): 64.9 pM

B10: Q179 (VHH QB-GB Ig-TD) (VHH)
VHH: B9 VHH
- IC50 (SARS-CoV-2 RBD protein [2]): 32.8 pM

B11: Q185 (VHH QB-GB dimeric TD) (VHH)
VHH: B9 VHH
- IC50 (SARS-CoV-2 RBD protein [3]): 14.7 pM
- IC50 (SARS-CoV-2 RBD protein [2]): 23.7 pM

B12: Q178 (VHH QB-GB IgG, non-Quad format) (VHH)
VHH: B9 VHH
- IC50 (SARS-CoV-2 RBD protein [2]): 185 pM
